For the experiment, the target named is DDB1 with N terminal Twin-Strep-FLAG (TSF) tag (human, UniProt Q16531 1-1140). In words: cryo-EM structure.

This is an account of results in article doi:10.1101/2022.12.04.519012 (bioRxiv, 2022).

DDB1 with N terminal Twin-Strep-FLAG (TSF) tag, sequence (Q16531 whole entry): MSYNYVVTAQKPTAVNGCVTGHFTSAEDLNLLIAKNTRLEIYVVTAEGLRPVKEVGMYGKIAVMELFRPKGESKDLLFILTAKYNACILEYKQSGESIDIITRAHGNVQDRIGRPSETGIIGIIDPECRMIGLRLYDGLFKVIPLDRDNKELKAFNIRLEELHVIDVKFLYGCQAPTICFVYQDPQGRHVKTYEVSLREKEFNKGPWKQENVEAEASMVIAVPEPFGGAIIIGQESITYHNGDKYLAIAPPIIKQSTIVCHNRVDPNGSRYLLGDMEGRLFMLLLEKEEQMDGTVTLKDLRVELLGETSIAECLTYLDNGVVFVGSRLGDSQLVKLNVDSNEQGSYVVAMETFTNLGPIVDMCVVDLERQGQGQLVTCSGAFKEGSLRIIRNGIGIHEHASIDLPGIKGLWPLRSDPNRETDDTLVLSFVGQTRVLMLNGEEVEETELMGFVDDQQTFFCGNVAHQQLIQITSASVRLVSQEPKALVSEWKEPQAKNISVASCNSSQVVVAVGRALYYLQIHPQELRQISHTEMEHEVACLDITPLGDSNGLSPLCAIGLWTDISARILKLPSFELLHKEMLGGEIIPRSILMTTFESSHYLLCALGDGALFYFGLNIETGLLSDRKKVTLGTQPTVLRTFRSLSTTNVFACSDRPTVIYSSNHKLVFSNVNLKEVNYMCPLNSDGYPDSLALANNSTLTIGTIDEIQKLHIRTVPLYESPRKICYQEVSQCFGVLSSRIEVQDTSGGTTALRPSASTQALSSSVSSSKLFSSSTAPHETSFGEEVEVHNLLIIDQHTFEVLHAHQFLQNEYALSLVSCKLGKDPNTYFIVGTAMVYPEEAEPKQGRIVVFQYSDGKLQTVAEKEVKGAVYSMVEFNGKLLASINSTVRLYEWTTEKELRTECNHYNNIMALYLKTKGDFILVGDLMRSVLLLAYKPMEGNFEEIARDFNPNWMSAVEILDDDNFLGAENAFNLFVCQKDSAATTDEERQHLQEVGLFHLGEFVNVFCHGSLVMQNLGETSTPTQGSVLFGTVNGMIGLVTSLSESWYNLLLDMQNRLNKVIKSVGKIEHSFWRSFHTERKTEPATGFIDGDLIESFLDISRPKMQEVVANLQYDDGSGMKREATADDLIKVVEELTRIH

B1: AMBRA1^WD40 (residues 1-204 directly fused to residues 853-1044) (domain or fragment)
chain: MKVVPEKNAVRILWGRERGARAMGAQRLLQELVEDKTRWMKWEGKRVELPDSPRSTFLLAFSPDRTLLASTHVNHNIYITEVKTGKCVHSLIGHRRTPWCVTFHPTISGLIASGCLDGEVRIWDLHGGSESWFTDSNNAIASLAFHPTAQLLLIATANEIHFWDWSRREPFAVVKTASEMERVRLVRFDPLGHYLLTAIVNPSNSNIANTTYRLQWWDFTKFDLPEISNASVNVLVQNCKIYNDASCDISADGQLLAAFIPSSQRGFPDEGILAVYSLAPHNLGEMLYTKRFGPNAISVSLSPMGRYVMVGLASRRILLHPSTEHMVAQVFRLQQAHGGETSMRRVFNVLYPMPADQRRHVSINSARWLPEPGLGLAYGTNKGDLVICRPEALNSG
As for B1, the binding result was “binds”.
